In patent US20210063414A1, “METHODS FOR PREVENTING AND/OR TREATING BONE LOSS CONDITIONS BY MODULATING IRISIN” (Dana-Farber Cancer Institute, Inc., priority 2018, published 2021):

Assays:
[1] = biological target: T1, MLO-Y4 cell surface proteins (Mus musculus, UniProt P39654); assay: Crosslinking/co-immunoprecipitation/mass spectrometry (TMT quantitative proteomics) to identify irisin receptors; assay type: binding; details: co-precipitated protein Alox15 (LOX15_MOUSE)
T1 construct: endogenous in cells; host or cells: MLO-Y4
T1 sequence (P39654 1-663): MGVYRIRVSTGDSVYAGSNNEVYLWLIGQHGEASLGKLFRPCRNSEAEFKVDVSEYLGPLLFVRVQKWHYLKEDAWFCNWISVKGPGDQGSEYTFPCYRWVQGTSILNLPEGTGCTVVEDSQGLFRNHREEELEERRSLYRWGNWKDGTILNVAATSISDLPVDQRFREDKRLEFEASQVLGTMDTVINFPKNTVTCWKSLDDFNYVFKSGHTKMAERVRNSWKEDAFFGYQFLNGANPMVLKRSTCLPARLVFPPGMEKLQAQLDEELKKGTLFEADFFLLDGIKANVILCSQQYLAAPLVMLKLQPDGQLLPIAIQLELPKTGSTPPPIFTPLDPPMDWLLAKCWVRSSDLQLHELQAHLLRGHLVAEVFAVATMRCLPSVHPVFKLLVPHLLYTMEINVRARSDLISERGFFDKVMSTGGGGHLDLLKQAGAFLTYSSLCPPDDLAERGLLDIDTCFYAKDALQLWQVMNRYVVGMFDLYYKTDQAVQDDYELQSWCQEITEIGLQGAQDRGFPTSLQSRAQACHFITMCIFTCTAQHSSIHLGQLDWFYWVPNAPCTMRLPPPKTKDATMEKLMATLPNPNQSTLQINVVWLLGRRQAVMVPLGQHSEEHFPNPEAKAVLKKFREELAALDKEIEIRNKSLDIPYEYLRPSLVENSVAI
Outline: (§1)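 Mouse MLO-Y4 cells were switched to serum-free FreeStyle medium for 4 h, chilled, then exposed to 10 nM His-tagged irisin (or adipsin as control) for 20 min. Cells were crosslinked with 1.5 mM DTSSP (30 min, ice), and bound proteins were pulled down on Ni-NTA and eluted with 250 mM imidazole. Eluates were separated by SDS-PAGE, trypsin-digested in gel, TMT 6-plex labelled and quantified by MS3-based LC-MS/MS on an Orbitrap Fusion Lumos.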

[2] = biological target: T2, MLO-Y4 cell surface proteins (Mus musculus, UniProt Q8K221); assay: as above; assay type: binding; details: co-precipitated protein Arfip2 (ARFP2_MOUSE)
T2 construct: endogenous in cells; host or cells: MLO-Y4
T2 sequence (Q8K221 1-341): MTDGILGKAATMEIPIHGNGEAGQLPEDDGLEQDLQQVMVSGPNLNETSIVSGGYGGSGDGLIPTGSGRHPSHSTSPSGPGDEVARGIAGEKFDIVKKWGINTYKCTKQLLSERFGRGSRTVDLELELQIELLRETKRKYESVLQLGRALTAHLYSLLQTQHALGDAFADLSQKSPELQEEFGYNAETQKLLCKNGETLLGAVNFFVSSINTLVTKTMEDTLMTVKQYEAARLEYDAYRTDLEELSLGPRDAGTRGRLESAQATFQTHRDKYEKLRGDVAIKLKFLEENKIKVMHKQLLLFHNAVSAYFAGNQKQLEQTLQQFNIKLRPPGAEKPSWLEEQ
Outline: as §1

B1: irisin: secreted cleaved form of FNDC5; recombinant human/mouse irisin with C-terminal his tag produced in HEK293 cells (protein)
chain: DSPSAPVNVTVRHLKANSAVVSWDVLEDEVVIGFAISQQKKDVRMLRFIQEVNTTTRSCALWDLEEDTEYIVHVQAISIQGQSPASEPVLFKTPREAEKMASKNKDEVTMKE
modifications: left off: small tags and cut ends
notes: secreted cleaved form of FNDC5; recombinant human/mouse irisin with C-terminal his tag produced in HEK293 cells
TMT signal-to-noise ratio [1]: 9.028 | irisin/adipsin TMT signal-to-noise ratio [1]: 0.064 | TMT signal-to-noise ratio [2]: 377.903 | irisin/adipsin TMT signal-to-noise ratio [2]: 0.346
